Patent US20040224408A1, “THAP proteins as nuclear receptors for chemokines and roles in transcriptional regulation, cell proliferation and cell differentiation” (published 2004)

Key:
[1] = target: T1, human chemokine SLC/CCL21, mature form (amino acids 24-134) (human, UniProt O00585 24-134); test: yeast two-hybrid, pGADT7-THAP1 mutant with pGBKT7-SLC/CCL21
T1 construct: also called SLC/6Ckine; SLC/CCL21 wild type
T1 sequence: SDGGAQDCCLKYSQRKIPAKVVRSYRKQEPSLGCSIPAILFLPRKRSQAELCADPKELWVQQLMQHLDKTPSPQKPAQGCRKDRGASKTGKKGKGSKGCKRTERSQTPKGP
Experimental: Two-hybrid interaction between THAP1 mutants and chemokine SLC/CCL21 was tested by cotransformation of AH109 with pGADT7-THAP1-C1, -C2, -C3, -N1, -N2 or -N3 and pGBKT7-SLC/CCL21 and selection of transformants by His and Ade double auxotrophy according to manufacturer's instructions ([…] two-hybrid system 3, Clontech). pGBKT7-SLC/CCL21 vector was generated by subcloning the BamHI SLC/CCL21 fragment from pGBT9-SLC (see example 1) into the unique BamHI cloning site of vector pGBKT7 (Clontech).

[2] = target: T2, human THAP1 (THanatos (death)-Associated Protein-1), full length (human, UniProt Q9NVV9 1-213); test: yeast two-hybrid, pGADT7-THAP1 mutant with pGBKT7-THAP1 wild-type
T2 construct: also called hTHAP1; FLJ10477
T2 sequence: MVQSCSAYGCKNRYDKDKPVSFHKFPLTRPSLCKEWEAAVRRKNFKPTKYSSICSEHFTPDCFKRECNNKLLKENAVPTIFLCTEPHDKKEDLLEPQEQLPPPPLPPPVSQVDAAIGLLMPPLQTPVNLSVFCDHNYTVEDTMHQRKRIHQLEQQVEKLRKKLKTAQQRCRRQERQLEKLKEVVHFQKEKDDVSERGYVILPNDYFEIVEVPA
Experimental: Two-hybrid interaction between THAP1 mutants and THAP1 wild type was tested by cotransformation of AH109 with pGADT7-THAP1-C1, -C2, -C3, -N1, -N2 or -N3 and pGBKT7-THAP1 wild-type and selection of transformants by His and Ade double auxotrophy according to manufacturer's instructions ([…] two-hybrid system 3, Clontech).

[3] = target: T3, Glutathione S-transferase (GST) control protein (pGEX-2T) (UniProt P08515 1-218 = GST); test: GST pull-down, immobilized GST control, in vitro translated 35S-labelled chemokine
T3 construct: Negative control immobilized on glutathione sepharose; also called GST beads; immobilized GST alone
T3 sequence (P08515 whole entry): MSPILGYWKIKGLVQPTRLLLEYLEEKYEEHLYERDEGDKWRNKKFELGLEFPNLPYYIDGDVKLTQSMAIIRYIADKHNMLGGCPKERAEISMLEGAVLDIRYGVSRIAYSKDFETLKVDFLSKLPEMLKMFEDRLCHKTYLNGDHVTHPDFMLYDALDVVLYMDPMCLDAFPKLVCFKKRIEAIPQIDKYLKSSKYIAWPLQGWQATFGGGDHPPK
Experimental: To confirm the interaction observed in yeast two-hybrid system, we performed in vitro GST pull down assays. THAP1, expressed as a GST-tagged fusion protein and immobilized on glutathione sepharose, was incubated with radiolabeled chemokines that were translated in vitro.
In vitro-translated chemokines were generated with the TNT-coupled reticulocyte lysate system (Promega, Madison, Wis., USA) using as templates pGBKT7-CCL21, -CCL19, -CXCL9, -CXCL10 and CXCL11 chemokine vectors (see Example 32) or pCMV-SPORT6-CCL5 plasmid (Image clone No. 4185200). In vitro-translated IFNγ cytokine was generated similarly using as template plasmid pGBKT7-IFNγ. A 25 μvolume of ³⁵S-labelled chemokine was incubated with immobilized GST-THAP1 or GST proteins overnight at 4° C., in the following binding buffer: 10 mM NaPO4 pH 8.0, 140 mM NaCl, 3 mM MgCl₂, 1 mM dithiothreitol (DTT), 0.05% NP40, and 0.2 mM phenylmethyl sulphonyl fluoride (PMSF), 1 mM Na vanadate, 50 mM β-glycerophosphate, 25 μg/ml chymotrypsine, 5 μg/ml aprotinin, and 10 μg/ml leupeptin. Beads were then washed 5 times in 1 ml binding buffer. Bound proteins were eluted with 2×Laemmli SDS-PAGE sample buffer, fractionated by 10% SDS-PAGE and visualized by fluorography using Amplify (Amersham Pharmacia Biotech). GST/THAP1 specifically bound to chemokines CCL21, CCL19, CCL5, CXCL9, CXCL10 and CXCL11 but not cytokine IFNγ (FIGS. 19 and 20). […] CXCL10 also bound to immobilized GST-THAP1 (indicated by ++ in the column labelled “In vitro binding to GST-THAP1”).

[4] = target: T4, THAP1 THAP domain (Homo sapiens, UniProt Q9NVV9 SEQ:1-90); test: EMSA; 20 mM Tris-HCl pH 7.5, 100 mM KCl, room temperature; conditions: tags: C-terminal His6 (pET-21c); label: 32P
T4 sequence: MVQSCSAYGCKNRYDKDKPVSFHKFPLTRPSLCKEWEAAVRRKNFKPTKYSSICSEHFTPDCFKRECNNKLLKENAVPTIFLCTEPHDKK
Experimental: To confirm that the THAP domain is a novel sequence specific DNA-binding domain, electrophoretic mobility shift assays (EMSA) were carried out using wild-type or mutant THAP domain responsive elements (THRE) determined by SELEX (see Example 28 and FIGS. 18 and 24). Double-stranded probes used in EMSA experiments were purified on 12% polyacrylamide gels, ³²P end labeled with T4 polynucleotide kinase and quantified by Cerenkov counting. About 20 ng of purified THAP domain from human THAP1 (prepared as described in Example 28) was incubated with 30000 cpm of the appropriate probe (about 2 ng). Binding reactions were carried out for 10 minutes at room temperature in 20 μl binding buffer (20 mM Tris-HCl pH 7.5, 100 mM KCl, 0.1% NP-40, 100 μg/ml BSA, 2.5 mM DTT, 5% glycerol, 200 ng poly (dI-dC)). Electrophoresis was performed on 8% (29:1) polyacrylamide gels containing 5% glycerol. Gels were run in 0.25×TBE at 150V and 4° C., dried and exposed on a phosphoimager screen (Molecular Dynamics). Sequences of wild type and mutant THRE oligonucleotides used in EMSA experiments were as follow (mutations are indicated in bold): wild-type probe 3, 5′-[…]-3′ (SEQ ID NO: 313); mutant probe 3mut1, 5′-[…]-3′ (SEQ ID NO: 314); mutant probe 3mut3, 5′-[…]-3′ (SEQ ID NO: 319); mutant probe 3mut4, 5′-[…]-3′ (SEQ ID NO: 320); mutant probe 3mut14, 5′-[…]-3′ (SEQ ID NO: 321); mutant probe 3mut5, 5′-[…]-3′ (SEQ ID NO: 322).
For competition experiments, 50-, 150-, and 250-fold molar excess of unlabelled wild-type (THRE competitor, probe 3) or mutant (non-specific competitor, probe 3mut1) THRE oligonucleotides were added to the reaction mixture just before the addition of the probe.

B1: THAP1-C2 deletion mutant (amino acids 120-213) (other)
chain: MPPLQTPVNLSVFCDHNYTVEDTMHQRKRIHQLEQQVEKLRKKLKTAQQRCRRQERQLEKLKEVVHFQKEKDDVSERGYVILPNDYFEIVEVPA
notes: Tested as a Gal4-BD or Gal4-AD fusion, as in vitro translated 35S-labelled protein and as an EGFP fusion
B1: binds [1]; binds [2].

B2: THAP1-C3 deletion mutant (amino acids 143-213) (other)
chain: MHQRKRIHQLEQQVEKLRKKLKTAQQRCRRQERQLEKLKEVVHFQKEKDDVSERGYVILPNDYFEIVEVPA
notes: as for B1
B2: binds [1]; binds [2].

B3: THAP1-C1 deletion mutant (amino acids 90-213) (other)
chain: KEDLLEPQEQLPPPPLPPPVSQVDAAIGLLMPPLQTPVNLSVFCDHNYTVEDTMHQRKRIHQLEQQVEKLRKKLKTAQQRCRRQERQLEKLKEVVHFQKEKDDVSERGYVILPNDYFEIVEVPA
notes: Tested as a Gal4-BD or Gal4-AD fusion, as in vitro translated 35S-labelled protein and as an EGFP fusion; also called THAP1ΔTHAP; THAP1?THAP
B3: binds [2].

B4: THAP1-N3 deletion mutant (amino acids 1-192) (other)
chain: MVQSCSAYGCKNRYDKDKPVSFHKFPLTRPSLCKEWEAAVRRKNFKPTKYSSICSEHFTPDCFKRECNNKLLKENAVPTIFLCTEPHDKKEDLLEPQEQLPPPPLPPPVSQVDAAIGLLMPPLQTPVNLSVFCDHNYTVEDTMHQRKRIHQLEQQVEKLRKKLKTAQQRCRRQERQLEKLKEVVHFQKEKDD
notes: as for B1
B4: binds [2].

B5: human chemokine I-TAC/CXCL11, mature form (amino acids 22-94) (ligand)
chain: FPMFKRGRCLCIGPGVKAVKVADIEKASIMYPSNNCDKIEVIITLKENKGQRCLNPKSKQARLIIKKVERKNF
notes: The range is stated on the GenBank entry; Tested as a Gal4-BD fusion (pGBKT7-CXCL11) and as in vitro translated 35S-labelled protein from that vector
B5: no binding [3].

B6: 3mut3 (dsDNA)
DNA 1: AGCAAGTAAGGTCAAACTACTTCAT
DNA 2: ATGAAGTAGTTTGACCTTACTTGCT
B6: no binding [4].

B7: 3mut4 (dsDNA)
DNA 1: AGCAAGTAAGTGCAAACTACTTCAT
DNA 2: ATGAAGTAGTTTGCACTTACTTGCT
B7: no binding [4].

B8: 3mut14 (dsDNA)
DNA 1: AGCAAGTAAGGGCCAACTACTTCAT
DNA 2: ATGAAGTAGTTGGCCCTTACTTGCT
B8: no binding [4].

B9: 3mut5 (dsDNA)
DNA 1: AGCAAGTAAGGGAAAACTACTTCAT
DNA 2: ATGAAGTAGTTTTCCCTTACTTGCT
B9: no binding [4].
